Reference: US20110256153A1 (IMMUNOGEN, published 2011)

How the values were obtained:
macaque CD37 = molecular target: T1, macaque CD37 (macaque, UniProt P11049 1-277 (human entry)); experiment: flow cytometry, 300-19/CD37mac cells
T1 construct: Expressed on 300-19 cells transfected with pSRa-CD37mac (300-19/CD37mac cells); also called macaca CD37; macaque derived CD37 antigen
T1 chain: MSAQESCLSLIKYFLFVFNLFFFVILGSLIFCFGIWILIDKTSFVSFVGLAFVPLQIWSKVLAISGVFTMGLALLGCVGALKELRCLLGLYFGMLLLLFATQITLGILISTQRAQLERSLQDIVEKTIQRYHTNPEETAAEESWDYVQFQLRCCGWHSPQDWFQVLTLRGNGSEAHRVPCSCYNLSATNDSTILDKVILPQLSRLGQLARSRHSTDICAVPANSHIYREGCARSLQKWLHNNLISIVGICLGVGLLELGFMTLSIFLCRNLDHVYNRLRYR
Method in brief: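 300-19 cells transfected with macaque CD37, alongside non-transfected 300-19 cells (1×10⁵ per sample), incubated 3 h with purified antibodies in RPMI-1640 with 2% normal goat serum. Bound antibody detected with FITC-conjugated anti-mouse or anti-human secondary for 1 h. Cells fixed in 1% formaldehyde before flow cytometry.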

human CD37 [1] = molecular target: T2, human CD37 (human, UniProt P11049 1-278); experiment: flow cytometry titration on Ramos cells; apparent Kd
T2 construct: Tetraspanin antigen; Expressed on 300-19 cells transfected with pSRa-CD37 (entire CDS) or endogenous on WSU-DLCL-2, BJAB and Ramos lymphoma cells; also called CD37 antigen; human CD37 wildtype
T2 sequence: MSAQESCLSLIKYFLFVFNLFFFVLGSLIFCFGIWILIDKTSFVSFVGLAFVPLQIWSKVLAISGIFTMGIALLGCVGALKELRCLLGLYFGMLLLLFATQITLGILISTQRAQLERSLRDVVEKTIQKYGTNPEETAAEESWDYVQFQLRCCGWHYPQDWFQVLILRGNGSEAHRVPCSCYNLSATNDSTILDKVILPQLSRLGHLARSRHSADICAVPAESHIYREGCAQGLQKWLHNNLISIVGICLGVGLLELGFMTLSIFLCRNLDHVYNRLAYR
Experimental: (§1) Binding specificity was tested by flow cytometry using purified antibodies. […] All murine antibodies were incubated for 3 h with either CD37-expressing 300-19 cells or the non-transfected 300-19 cells (1×10⁵ cells per sample) in 100 μL FACS buffer (RPMI-1640 medium supplemented with 2% normal goat serum). Then, the cells were pelleted, washed, and incubated for 1 h with 100 μL of FITC-conjugated goat anti-mouse IgG-antibody (Jackson Laboratory, 6 μg/mL in FACS buffer). The cells were pelleted again, washed with FACS buffer and resuspended in 200 μL of PBS containing 1% formaldehyde. Samples were acquired using a FACSCalibur flow cytometer with the HTS multiwell sampler or a FACS array flow cytometer and analyzed using CellQuest Pro (all from BD Biosciences, San Diego, US).
The chimeric antibodies chCD37-3 and chCD37-12 were assayed for their binding affinity to Ramos cells in comparison to their murine counterparts. Flow cytometry binding assays using Ramos cells and muCD37-3, chCD37-3, muCD37-12 and chCD37-12 antibodies were carried out and analyzed as described in Example 2 using secondary FITC-conjugated goat-anti-murine and -anti-human antibodies. FIG. 9A depicts the dose-response curves generated by non-linear regression for each antibody. The value for the apparent dissociation constant (Kd) of each antibody was calculated using GraphPad Prism v4 (GraphPad software, San Diego, Calif.).

human CD37 [2] = molecular target: T2, human CD37; experiment: flow cytometry titration on WSU-DLCL-2 cells; EC50 taken as apparent Kd
Experimental: as §1
To verify that the antibodies can also bind to endogenously expressed CD37, binding experiments were performed with CD37-positive WSU-DLCL-2 lymphoma cells and the muCD37-3, muCD37-12, muCD37-8, muCD37-10 or muCD37-14 antibodies. WSU-DLCL-2 cells were incubated with varying concentrations of murine antibodies and processed as described above for flow cytometry analysis. Data analysis was performed using CellQuest Pro (BD Biosciences, San Diego, US) and for each sample the mean fluorescence intensity for FL1 (MFI) was exported and plotted against the antibody concentration in a semi-log plot (FIG. 3). […]

human CD37 [3] = molecular target: T2, human CD37; experiment: competition flow cytometry on BJAB cells; competitor PE-labeled muCD37-3 (1 nM)
Experimental: Flow cytometry binding assays using BJAB cells and a competitive binding format were used to evaluate binding affinity of chimeric and humanized versions of CD37-3. BJAB cells were incubated with a 1 nM concentration of PE-labeled muCD37-3 antibody and competition was measured by adding varying amounts of muCD37-3, chCD37-3, huCD37-3v1.0 or huCD37-3v1.01. The samples were incubated for 3 hrs at 4° C. Then, the cells were pelleted, washed with FACS buffer and resuspended in 200 μL of PBS containing 1% formaldehyde. Samples were acquired using a FACSCalibur flow cytometer with the HTS multiwell sampler and analyzed using CellQuest Pro (all from BD Biosciences, San Diego, US). The resulting mean PE fluorescence was plotted against the amount of competing antibody used in a semi-log plot. FIG. 9B depicts the dose-response curves generated by non-linear regression for each antibody. The value for the apparent dissociation constant (Kd) of each antibody was calculated using GraphPad Prism v4 (GraphPad software, San Diego, Calif.).

B1: muCD37-3 (antibody, mouse IgG2a, kappa)
heavy: QVQVKESGPGLVAPSQSLSITCTVSGFSLTTSGVSWVRQPPGKGLEWLGVIWGDGSTNYHSALKSRLSIKKDHSKSQVFLKLNSLQTDDTATYYCAKGGYSLAHWGQGTLVTVSAAKTTAPSVYPLAPVCGDTTGSSVTLGCLVKGYFPEPVTLTWNSGSLSSGVHTFPAVLQSDLYTLSSSVTVTSSTWPSQSITCNVAHPASSTKVDKKIEPRGPTIKPCPPCKCPAPNLLGGPSVFIFPPKIKDVLMISLSPIVTCVVVDVSEDDPDVQISWFVNNVEVHTAQTQTHREDYNSTLRVVSALPIQHQDWMSGKEFKCKVNNKDLPAPIERTISKPKGSVRAPQVYVLPPPEEEMTKKQVTLTCMVTDFMPEDIYVEWTNNGKTELNYKNTEPVLDSDGSYFMYSKLRVEKKNWVERNSYSCSVVHEGLHNHHTTKSFSRTPGK
light: DIQMTQSPASLSVSVGETVTITCRASENIRSNLAWYQQKQGKSPQLLVNVATNLADGVPSRFSGSGSGTQYSLKINSLQSEDFGTYYCQHYWGTTWTFGGGTKLEIKRADAAPTVSIFPPSSEQLTSGGASVVCFLNNFYPKDINVKWKIDGSERQNGVLNSWTDQDSKDSTYSMSSTLTLTKDEYERHNSYTCEATHKTSTSPIVKSFNRNEC
notes: Murine hybridoma antibody; also called murine CD37-3 antibody; muCD37-3-PE
- binding result (macaque CD37): no binding
- Kd (human CD37 [1]): 0.4 nM
- Kd (human CD37 [2]): 0.52 nM
- EC50 (human CD37 [3]): 0.8 nM
